Tested on: MS2 coat protein
Assay: apparent KD of MS2 coat protein; designed switch direction (-1 OFF switch, 1 ON switch): 1; higher = weaker reporter binding
Procedure, shortened: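 Apparent KD, taken as the median over clusters for each design, was obtained by curve-fitting normalised cluster fluorescence. Designed RNA switches had been transcribed on Illumina chips by stalled E. coli RNA polymerase and titrated with SNAP-549-labelled MS2 coat protein, doubling from 0.7 or 1.5 nM to 3 µM.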

[1] = input ligand: microRNA oligo, concentration not stated
[2] = Eterna round: R95, input ligand: FMN 200 uM
[3] = Eterna round: R95, input ligand: microRNA oligo, concentration not stated
[4] = Eterna round: R95, input ligand: none

Sequence	apparent KD of MS2 coat protein [1]	also measured
UGUUGUAUUACAGGAUAUCUAGUAUUUUGAUUUAGAGAAGGGUAUUCACAUGAGGAUCACCCAUGUAUAUACGAGGAAGUUGUG [JMF's solution 44] (Eterna round: R96, puzzle: Same State NG 1)	0.044 µM	
UGUUGUAUUACAGGAUAUCUAGUAUUUUUAUUGAGAGAAGGGUAUUCACAUGAGGAUCACCCAUGUAUAUACGAGGAAGUUGUG [JMF's solution 55] (Eterna round: R96, puzzle: Same State NG 1)	0.0348 µM	
UGUUGUAUUACAGGAUAUCUAUGAUUUAUAUUUAGAGAAGGGUAUUCACAUGAGGAUCACCCAUGUAUAUACGAGGAAGUUGUG [JMF's solution 61] (Eterna round: R96, puzzle: Same State NG 1)	0.0336 µM	
UGUUGUAUUACAGGAUAUCUAUGAUUUUUUUUUAGAGAAGGGUAUUCACAUGAGGAUCACCCAUGUAUAUACGAGGAAGUUGUG [JMF's solution 65] (Eterna round: R96, puzzle: Same State NG 1)	0.0398 µM	
UGUUGUAUUACAGGAUAUCUAUGGUUUUUAUUUAGAGAAGGGUAUUCACAUGAGGAUCACCCAUGUAUAUACGAGGAAGUUGUG [JMF's solution 58] (Eterna round: R96, puzzle: Same State NG 1)	0.0416 µM	
UGUUGUAUUACAGGAUAUCUAUUAGGUUUAUUUAGAGAAGGGUAUUCACAUGAGGAUCACCCAUGUAUAUACGAGGAAGUUGUG [JMF's solution 87] (Eterna round: R96, puzzle: Same State NG 1)	0.0418 µM	
UGUUGUAUUACAGGAUAUCUAUUAGUUUUAUUUAGAGAAGGGUAUUCACAUGAGGAUCACCCAUGUAUAUACGAGGAAGUUGUG [JMF's solution 14] (Eterna round: R96, puzzle: Same State NG 1)	0.0422 µM	
UGUUGUAUUACAGGAUAUCUAUUAUGUUUAUUUAGAGAAGGGUAUUCACAUGAGGAUCACCCAUGUAUAUACGAGGAAGUUGUG [JMF's solution 16] (Eterna round: R96, puzzle: Same State NG 1)	0.0375 µM	
UGUUGUAUUACAGGAUAUCUAUUAUUAUUAUUUAGAGAAGGGUAUUCACAUGAGGAUCACCCAUGUAUAUACGAGGAAGUUGUG [JMF's solution 17] (Eterna round: R96, puzzle: Same State NG 1)	0.0338 µM	
UGUUGUAUUACAGGAUAUCUAUUAUUGUUAUUUAGAGAAGGGUAUUCACAUGAGGAUCACCCAUGUAUAUACGAGGAAGUUGUG [JMF's solution 18] (Eterna round: R96, puzzle: Same State NG 1)	0.0399 µM	
UGUUGUAUUACAGGAUAUCUAUUAUUUAUAUUUAGAGAAGGGUAUUCACAUGAGGAUCACCCAUGUAUAUACGAGGAAGUUGUG [JMF's solution 19] (Eterna round: R96, puzzle: Same State NG 1)	0.0364 µM	
UGUUGUAUUACAGGAUAUCUAUUAUUUUAAUUUAGAGAAGGGUAUUCACAUGAGGAUCACCCAUGUAUAUACGAGGAAGUUGUG [JMF's solution 21] (Eterna round: R96, puzzle: Same State NG 1)	0.0384 µM	
UGUUGUAUUACAGGAUAUCUAUUAUUUUUAGUUAGAGAAGGGUAUUCACAUGAGGAUCACCCAUGUAUAUACGAGGAAGUUGUG [JMF's solution 26] (Eterna round: R96, puzzle: Same State NG 1)	0.0357 µM	
UGUUGUAUUACAGGAUAUCUAUUAUUUUUAUAUAGAGAAGGGUAUUCACAUGAGGAUCACCCAUGUAUAUACGAGGAAGUUGUG [JMF's solution 28] (Eterna round: R96, puzzle: Same State NG 1)	0.0296 µM	
UGUUGUAUUACAGGAUAUCUAUUGUUAUUAUUUAGAGAAGGGUAUUCACAUGAGGAUCACCCAUGUAUAUACGAGGAAGUUGUG [JMF's solution 74] (Eterna round: R96, puzzle: Same State NG 1)	0.033 µM	
UGUUGUAUUACAGGAUAUCUAUUGUUUUAAUUUAGAGAAGGGUAUUCACAUGAGGAUCACCCAUGUAUAUACGAGGAAGUUGUG [JMF's solution 76] (Eterna round: R96, puzzle: Same State NG 1)	0.0406 µM	
UGUUGUAUUACAGGAUAUCUAUUGUUUUUAUUUAGAGAAGGGUAUUCACAUGAGGAUCACCCAUGUAUAUACGAGGAAGUUGUG [JMF's solution 12] (Eterna round: R96, puzzle: Same State NG 1)	0.0406 µM	
UGUUGUUAAUUAGGAUAUGGACACAUGAGGAUCACCCAUGUAAUGUCGAUGCUAUGUGGACACGUUCAGAAGGAAUGGCUAACA [SameState NG2 #92] (Eterna round: R96, puzzle: Same State NG 2)	0.0532 µM	apparent KD of MS2 coat protein (input ligand: FMN 200 uM): 0.0297 µM; apparent KD of MS2 coat protein (input ligand: none): 0.0584 µM
UGUUGUUAAUUAGGAUAUGGUCACAUGAGGAUCACCCAUGUAAUGUCGAUGCUAUGUGGAUACGAUCAGAAGGAAUGGCUAACA [SameState NG2 #94] (Eterna round: R96, puzzle: Same State NG 2)	0.225 µM	apparent KD of MS2 coat protein (input ligand: FMN 200 uM): 0.0933 µM; apparent KD of MS2 coat protein (input ligand: none): 0.175 µM
UUAAAACAUGAGGAUCACCCAUGUCAACAAAGUCGAGGAUAUGGGCAAUUAUUAUUAGAACCAGAAGGCGAAUAUU [Mat - Same State 1 - Mod of UCT - D28] (puzzle: Same State 1)		apparent KD of MS2 coat protein [2]: 0.0271 µM; apparent KD of MS2 coat protein [3]: 0.26 µM; apparent KD of MS2 coat protein [4]: 0.289 µM
UUAAGCAGCGGGCAGGAUAUGUAUUAAAAUACAUGAGGAUCACCCAUGUGCAGGUGUAACACCUGACAGAAGGGCCAAUCGGUGC [Soteed - 9] (puzzle: Same State 2)		apparent KD of MS2 coat protein [2]: 0.0363 µM; apparent KD of MS2 coat protein [3]: 0.197 µM; apparent KD of MS2 coat protein [4]: 0.329 µM
UUAAUAAUGUAAGGAUAUACAUGAGGAUUUCUCGUAGAAGGUACAGGACAUGAGGAUCACCCAUGUAUCGCUCAGAAGAGCGUA [Mat - Same State NG 1 - JL mod - D24] (Eterna round: R96, puzzle: Same State NG 1)	0.715 µM	apparent KD of MS2 coat protein (input ligand: FMN 200 uM): 1.4 µM; apparent KD of MS2 coat protein (input ligand: none): 1.75 µM
UUAAUAAUGUAAGGAUAUACAUGAGGAUUUCUCGUAGAAGGUACAGGACAUGAGGAUCACCCAUGUAUCGCUCCGUAGAGCGUA [Mat - Same State NG 1 - JL mod - D23] (Eterna round: R96, puzzle: Same State NG 1)	0.228 µM	apparent KD of MS2 coat protein (input ligand: FMN 200 uM): 0.601 µM; apparent KD of MS2 coat protein (input ligand: none): 0.299 µM
UUAAUAAUGUAAGGAUAUACAUGAGGAUUUCUCGUAGAAGGUACAGGACAUGAGGAUCACCCAUGUAUCGCUCGAAAGAGCGUA [Mat - Same State NG 1 - JL mod - D25] (Eterna round: R96, puzzle: Same State NG 1)	0.217 µM	apparent KD of MS2 coat protein (input ligand: FMN 200 uM): 0.521 µM; apparent KD of MS2 coat protein (input ligand: none): 1.13 µM
UUAAUAAUGUUAGGAUAUACAUGAGGAAUCCUCGUAGAAGGAACAUGACAUGAGGAUCACCCAUGUAGCGCUCGAAAGAGCGCA [Mat - Same State NG 1 - JL mod - D48] (Eterna round: R96, puzzle: Same State NG 1)	0.0163 µM	apparent KD of MS2 coat protein (input ligand: FMN 200 uM): 0.0256 µM; apparent KD of MS2 coat protein (input ligand: none): 0.417 µM
